Assay results: US20230058779A1, “COMBINATION CANCER TREATMENT USING A PD-1 ANTAGONIST, AN ILT4 ANTAGONIST, AND LENVATINIB OR SALTS THEREOF” (Merck Sharp & Dohme LLC, priority 2020, published 2023)

System: participants with advanced solid tumors
Assay: Phase 1 open label, multi-arm, multi-center study of MK-4830 as monotherapy or in combination with pembrolizumab (NCT03564691)
Format: in vivo, human
Details: 1600 mg dose level, MK-4830 monotherapy cohort

Q: How did the “transient Grade 3 blood pressure increase” value turn out when “MK-4830: anti-ILT4 antibody; light chain SEQ ID NO:5, heavy chain SEQ ID NO:10” was run?
A: one episode
